Reference: patent EP3494999A1, “PSMA LIGANDS FOR IMAGING AND ENDORADIOTHERAPY” (Technische Universität München, priority 2017, dated 2019)
Square brackets hold non-standard residues; d marks the D form. Peptide text beside a SMILES is read from it. * marks the point of attachment. X1 = O=C(O)CC[C@H](NC(=O)N[C@@H](CCCCNC(=O)CCCCCCC(=O)*)C(=O)O)C(=O)O; DOTAGA = O=C(O)CN1CCN(CC(=O)O)CCN(C(CCC(=O)*)C(=O)O)CCN(CC(=O)O)CC1; dPhe(4-NH2) = Nc1ccc(C[C@@H](N)C(=O)O)cc1; dTyr(3-I) = N[C@H](Cc1ccc(O)c(I)c1)C(=O)O; Phe(4-NH2) = Nc1ccc(C[C@H](N)C(=O)O)cc1; d2Nal = N[C@H](Cc1ccc2ccccc2c1)C(=O)O

Legend:
[1] = molecular target: T1, human serum albumin (HSA) (Homo sapiens, UniProt P02768); assay type: in vitro ADME
T1 construct: purchased Daicel Chemical Industries, purchased from Chiral Technologies Europe (France)
Excerpt: The Fmoc-(9-fluorenylmethoxycarbonyl-) and all other protected amino acid analogs were purchased from Bachem (Bubendorf, Switzerland) or Iris Biotech (Marktredwitz, Germany). […] The tritylchloride polystyrene (TCP) resin was obtained from PepChem (Tubingen, Germany). Chematech (Dijon, France) delivered the chelator DOTAGA-anhydride. All necessary solvents and other organic reagents were purchased from either Alfa Aesar (Karlsruhe, Germany), Sigma-Aldrich (Munich, Germany) or VWR (Darmstadt, Germany). Solid phase synthesis of the peptides was carried out by manual operation using an Intelli-Mixer syringe shaker (Neolab, Heidelberg, Germany). […] Analysis of the peptides was performed by applying different gradients of 0.1% (v/v) trifluoroacetic acid (TFA) in H2O (solvent A) and 0.1% TFA (v/v) in acetonitrile (MeCN) (solvent B) with a constant flow of 1 mL/min (specific gradients are cited in the text). […] Human serum albumin (HSA) binding was determined using a Chiralpak HSA 50 x 3 mm 5µm Analytical Column connected to a Chiralpak HSA 10 x 3 mm 5µm Guard Cartridge (Daicel Chemical Industries) purchased from Chiral Technologies Europe (France). Nonlinear regression for the HSA binding was performed using OriginPro 2016G. Both retention times tR as well as the capacity factors K' are cited in the text. […] Radioactivity was detected through connection of the outlet of the UV-photometer to a Nal(TI) well-type scintillation counter from EG&G Ortec (Munich, Germany). […] ESI-mass spectra were acquired on an expression^L CMS mass spectrometer (Advion Ltd., Harlow, UK) and on a Varian 500-MS IT mass spectrometer (Agilent Technologies, Santa Clara, USA). For the HSA binding experiment a Chiralpak HSA 50 x 3 mm 5µm Analytical Column, (Daicel Chemical Industries, LTD) connected to a Chiralpak HSA 10 x 3 mm 5µm Guard Cartridge (Daicel Chemical Industries; Chiral Technologies Europe) was used.
The mobile phase was freshly prepared for each experiment and only used for one day. The column was kept at room temperature and each run was stopped after detection of the signal to reduce the acquisition time. All substances were dissolved in a 0.5mg/ml concentration in 50% 2-Propanol and 50% 50mM pH 6.9 ammonium acetate buffer. […] All nine reference substances were injected consecutively to establish a non-linear regression with OriginPro 2016G. […] Table 1: Reference substances used for the calibration of the HSA-column.

[2] = molecular target: PSMA (Homo sapiens, UniProt Q04609); assay: Internalization of radiolabeled PSMA inhibitors into cells (PMPA blockade); assay type: cell-based; set-up: endogenous in cells; LNCaP is named only for the xenografts; conditions: 177Lu-labeled inhibitors, 37°C; reference basis of the % not stated
Method: The ^177Lu-labeled compounds, for in vitro studies, were prepared as previously described (Sosabowski, J.K. and S.J. Mather, Conjugation of DOTA-like chelating agents to peptides and radiolabeling with trivalent metallic isotopes. Nat. Protocols, 2006. 1(2): p. 972-976) with minor modifications and used without further purification. In short, to a reaction volume of 10 µL 1.0 M NH4OAc buffer pH = 5.9 was added 0.75 to 1.0 nmol tracer (7.5 to 10 µL), 10 to 40 MBq ^177LuCl3 (Specific Activity (AS) > 3000 GBq/mg, 740 MBq/mL, 0.04 M HCl, ITG, Garching, Germany) and finally filled up to 100 µL with trace-pure Water (Merck, Darmstadt, Germany). The reaction mixture was heated for 30 min at 95°C and the radiochemical purity was determined using Radio-TLC.
[…] Each well was treated with either 25 µL of either DMEM-F12 (5% BSA) or a 100 µM PMPA solution for blockade. Next, 25 µL of the respective ^68Ga-and ^177Lu-labeled PSMA inhibitors (2.0 nM / 5.0 nM) was added and the cells incubated at 37°C for 5, 15, 30 and 60 min, respectively. The experiment was terminated by placing the 24-well plate on ice for 3 min and consecutive removal of the medium. Each well was rinsed with 250 µL HBSS and the fractions from these first two steps combined, representing the amount of free radioligand. Removal of surface bound activity was accomplished by incubation of the cells with 250 µL of ice-cold PMPA (10 µM in PBS) solution for 5 min and rinsed again with another 250 µL of ice-cold PBS. The internalized activity was determined by incubation of the cells in 250 µL 1.0 M NaOH and the combination with the fraction of a subsequent wash step with 250 µL 1.0 M NaOH. Each experiment (control and blockade) was performed in triplicate for each time point. Free, surface bound and internalized activity was quantified in a γ-counter.

T1 sequence (P02768 25-609): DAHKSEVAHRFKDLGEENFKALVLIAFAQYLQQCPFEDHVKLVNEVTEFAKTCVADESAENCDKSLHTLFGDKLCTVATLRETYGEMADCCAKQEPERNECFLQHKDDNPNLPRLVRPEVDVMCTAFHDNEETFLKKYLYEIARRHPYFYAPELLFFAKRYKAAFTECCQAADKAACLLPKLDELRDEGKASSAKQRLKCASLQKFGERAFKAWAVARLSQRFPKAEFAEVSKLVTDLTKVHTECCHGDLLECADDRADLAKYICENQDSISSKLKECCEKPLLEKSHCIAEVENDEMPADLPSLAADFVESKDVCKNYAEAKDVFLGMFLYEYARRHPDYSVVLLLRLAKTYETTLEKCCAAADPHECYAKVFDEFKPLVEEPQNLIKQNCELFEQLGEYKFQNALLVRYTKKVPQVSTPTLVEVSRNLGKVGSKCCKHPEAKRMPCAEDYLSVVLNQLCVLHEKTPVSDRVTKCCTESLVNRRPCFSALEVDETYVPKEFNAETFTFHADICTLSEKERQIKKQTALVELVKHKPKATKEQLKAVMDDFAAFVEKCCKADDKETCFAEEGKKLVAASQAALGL
Sequence of PSMA (Q04609 whole entry): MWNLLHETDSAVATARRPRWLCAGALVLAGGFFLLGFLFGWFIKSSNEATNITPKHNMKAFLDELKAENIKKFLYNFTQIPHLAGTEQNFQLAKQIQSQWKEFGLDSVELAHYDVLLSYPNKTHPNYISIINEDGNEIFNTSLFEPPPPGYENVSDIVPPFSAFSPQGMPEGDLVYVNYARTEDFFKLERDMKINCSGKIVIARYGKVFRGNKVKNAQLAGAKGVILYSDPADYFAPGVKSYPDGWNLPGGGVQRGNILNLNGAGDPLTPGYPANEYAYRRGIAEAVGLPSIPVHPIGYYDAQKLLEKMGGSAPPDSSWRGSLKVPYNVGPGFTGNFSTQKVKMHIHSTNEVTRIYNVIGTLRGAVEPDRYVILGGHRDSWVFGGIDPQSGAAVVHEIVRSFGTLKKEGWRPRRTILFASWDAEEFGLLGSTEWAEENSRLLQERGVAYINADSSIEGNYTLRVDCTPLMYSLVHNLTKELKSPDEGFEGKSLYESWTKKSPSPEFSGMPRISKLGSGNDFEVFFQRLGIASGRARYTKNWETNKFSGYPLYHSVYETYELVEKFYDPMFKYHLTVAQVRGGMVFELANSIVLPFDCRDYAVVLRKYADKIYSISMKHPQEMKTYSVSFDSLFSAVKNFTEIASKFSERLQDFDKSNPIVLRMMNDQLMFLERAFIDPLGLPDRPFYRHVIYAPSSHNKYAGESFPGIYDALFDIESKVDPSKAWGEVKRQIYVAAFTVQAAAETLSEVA

| SMILES | HSA [%] [1] [%] | Internalization [%] [2] [%] |
| --- | --- | --- |
| Nc1ccc(C[C@H](NC(=O)CCC(C(=O)O)N2CCN(CC(=O)O)CCN(CC(=O)O)CCN(CC(=O)O)CC2)C(=O)N[C@H](Cc2ccc(O)cc2)C(=O)N[C@H](Cc2ccc3ccccc3c2)C(=O)N[C@H](CCCCNC(=O)CCCCCCC(=O)NCCCC[C@H](NC(=O)N[C@@H](CCC(=O)O)C(=O)O)C(=O)O)C(=O)O)cc1 (stereo partly shown) [[^nat/177Lu]PSMA-6, DOTAGA-(4-NH2)F-y-nal-k-KuE, metal not drawn] ({DOTAGA}-[Phe(4-NH2)][dY][d2Nal][dK](X1)-OH) | 83.17 | 108.8 ± 2.5 |
| O=C(O)CC[C@H](NC(=O)N[C@@H](CCCCNC(=O)CCCCCCC(=O)NCCCC[C@@H](NC(=O)[C@@H](Cc1ccc2ccccc2c1)NC(=O)[C@@H](Cc1ccc(O)cc1)NC(=O)CCC(C(=O)O)N1CCN(CC(=O)O)CCN(CC(=O)O)CCN(CC(=O)O)CC1)C(=O)O)C(=O)O)C(=O)O (stereo partly shown) [[^nat/177Lu]PSMA-4, DOTAGA-y-nal-k-KuE, metal not drawn, reference compound] | 82.6 | 71.7 ± 0.7 |
| Nc1ccc(C[C@@H](NC(=O)CCC(C(=O)O)N2CCN(CC(=O)O)CCN(CC(=O)O)CCN(CC(=O)O)CC2)C(=O)N[C@H](Cc2ccc(O)c(I)c2)C(=O)N[C@H](Cc2ccccc2)C(=O)N[C@H](CCCCNC(=O)CCCCCCC(=O)NCCCC[C@H](NC(=O)N[C@@H](CCC(=O)O)C(=O)O)C(=O)O)C(=O)O)cc1 (stereo partly drawn) [[^nat/177Lu]PSMA-2, DOTAGA-(4-NH2)f-(l-y)-f-k-KuE, metal not drawn] ({DOTAGA}-[dPhe(4-NH2)][dTyr(3-I)][dF][dK](X1)-OH) | 82.5 | 122.15 ± 1.3 |
| O=C(O)CC[C@H](NC(=O)N[C@@H](CCCCNC(=O)[C@@H](Cc1ccc(I)cc1)NC(=O)CCCC(=O)NCCCC[C@@H](NC(=O)[C@@H](Cc1ccc2ccccc2c1)NC(=O)[C@@H](Cc1ccc(O)cc1)NC(=O)CCC(C(=O)O)N1CCN(CC(=O)O)CCN(CC(=O)O)CCN(CC(=O)O)CC1)C(=O)O)C(=O)O)C(=O)O (stereo partly drawn) [[^nat/177Lu]PSMA-10, DOTAGA-y-nal-k(Glut-(l-f)-KuE), metal not drawn, reference compound] | 96.61 | 118.6 ± 0.5 |
| Nc1ccc(C[C@H](NC(=O)CCC(C(=O)O)N2CCN(CC(=O)O)CCN(CC(=O)O)CCN(CC(=O)O)CC2)C(=O)N[C@H](Cc2ccc(O)c(I)c2)C(=O)N[C@H](Cc2ccccc2)C(=O)N[C@H](CCCCNC(=O)CCCCCCC(=O)NCCCC[C@H](NC(=O)N[C@@H](CCC(=O)O)C(=O)O)C(=O)O)C(=O)O)cc1 (stereo partly drawn) [[^nat/177Lu]PSMA-3, DOTAGA-(4-NH2)F-(l-y)-f-k-KuE, metal not drawn] ({DOTAGA}-[Phe(4-NH2)][dTyr(3-I)][dF][dK](X1)-OH) | 91.9 | 166.92 ± 2.4 |
